One molecule from publication PMC8104107 can be followed below.

The stoichiometry N is the number of molecules, sites or subunits per partner or assembly.

This assay addresses T1, influenza A/WSN/33 virus nucleoprotein (NP), recombinant (influenza A virus A/WSN/33 (H1N1)), P15682.
T1 chain: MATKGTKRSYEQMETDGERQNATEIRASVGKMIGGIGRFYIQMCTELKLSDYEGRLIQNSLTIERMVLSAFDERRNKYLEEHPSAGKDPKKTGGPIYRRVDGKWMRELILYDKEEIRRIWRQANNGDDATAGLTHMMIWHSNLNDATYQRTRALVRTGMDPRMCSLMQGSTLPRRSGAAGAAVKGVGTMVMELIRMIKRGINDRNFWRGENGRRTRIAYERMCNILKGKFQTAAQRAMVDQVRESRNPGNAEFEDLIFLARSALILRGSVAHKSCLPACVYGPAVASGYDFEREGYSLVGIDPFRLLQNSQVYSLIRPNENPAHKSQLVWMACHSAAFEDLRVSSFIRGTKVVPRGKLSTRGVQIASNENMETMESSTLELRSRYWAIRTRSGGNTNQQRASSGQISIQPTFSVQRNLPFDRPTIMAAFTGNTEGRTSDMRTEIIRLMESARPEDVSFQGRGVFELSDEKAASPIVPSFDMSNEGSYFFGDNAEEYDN
The assay can be described thus: crystal structure; NP mixed with FA-6005 (final 0.5 mM) before crystallization; 0.1 M sodium acetate, 0.05 M magnesium acetate, 0.1 M MES pH 6.0, 7% PEG 8000, 5% glycerol; space group C222(1), one trimer in each asymmetric unit. As to conditions: remark: other sources report otherwise.

B1: influenza A/WSN/33 virus nucleoprotein (NP), recombinant, P15682 1-498 (natural protein)
chain: MATKGTKRSYEQMETDGERQNATEIRASVGKMIGGIGRFYIQMCTELKLSDYEGRLIQNSLTIERMVLSAFDERRNKYLEEHPSAGKDPKKTGGPIYRRVDGKWMRELILYDKEEIRRIWRQANNGDDATAGLTHMMIWHSNLNDATYQRTRALVRTGMDPRMCSLMQGSTLPRRSGAAGAAVKGVGTMVMELIRMIKRGINDRNFWRGENGRRTRIAYERMCNILKGKFQTAAQRAMVDQVRESRNPGNAEFEDLIFLARSALILRGSVAHKSCLPACVYGPAVASGYDFEREGYSLVGIDPFRLLQNSQVYSLIRPNENPAHKSQLVWMACHSAAFEDLRVSSFIRGTKVVPRGKLSTRGVQIASNENMETMESSTLELRSRYWAIRTRSGGNTNQQRASSGQISIQPTFSVQRNLPFDRPTIMAAFTGNTEGRTSDMRTEIIRLMESARPEDVSFQGRGVFELSDEKAASPIVPSFDMSNEGSYFFGDNAEEYDN
For the molecule B1, the stoichiometry N is 3.
